Assay results: PMC9233197, “Neuropeptide signalling shapes feeding and reproductive behaviours in male Caenorhabditis elegans” (Life Science Alliance, 2022)
No end group written: not given here.

Molecular target: T1, NPR-22 (Caenorhabditis elegans, UniProt Q59E83)
T1 construct: host or cells: CHO-K1 cells (CHO/mtAEQ/Gα16) transiently transfected with NPR-22 cDNA in pcDNA3.1 TOPO
T1 sequence (Q59E83 1-434): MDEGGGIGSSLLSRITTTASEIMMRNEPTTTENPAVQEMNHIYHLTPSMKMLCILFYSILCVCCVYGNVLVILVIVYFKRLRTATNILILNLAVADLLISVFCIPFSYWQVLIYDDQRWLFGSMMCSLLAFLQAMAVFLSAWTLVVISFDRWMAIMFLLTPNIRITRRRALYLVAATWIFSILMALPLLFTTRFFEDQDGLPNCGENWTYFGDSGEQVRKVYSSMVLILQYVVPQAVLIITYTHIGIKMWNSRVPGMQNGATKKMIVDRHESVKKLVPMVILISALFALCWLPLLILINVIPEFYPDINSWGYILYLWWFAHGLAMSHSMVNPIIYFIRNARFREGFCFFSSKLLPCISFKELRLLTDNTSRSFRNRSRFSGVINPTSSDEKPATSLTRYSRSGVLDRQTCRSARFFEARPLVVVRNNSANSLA
Test: In vitro GPCR activation assay (aequorin bioluminescence, CHO/mtAEQ/Gα16 cells transfected with NPR-22)
Format: cell-based
Settings: dose–response, n = 6–8 trials
Source text: Figure 1. Neuropeptide lury-1 and its receptor npr-22 are expressed in different cells in the two sexes of C. elegans. […] In males, there is additional expression in cells in the tail (white arrows). Dashed outlines indicate worm body and position of pharyngeal bulbs in the head. Scale bar = 10 μm. (B) Identification of lury-1–expressing male tail neurons using NeuroPAL ([Tekieli et al, 2021]; [Yemini et al, 2021]). The lury-1 reporter line used here is JN2443 (Plury-1::Venus, unc-122p::mCherry). […] DX1–DX3 are annotated in the image. Nuclear fluorescence in other neurons is in pseudocolour as in [Yemini et al (2021)]. Scale bar = 10 μm. […] The corresponding EC50 values (M) for each peptide are as indicated. Line represents non-linear regression fit of a variable slope line using three parameters. n = 6–8 trials. […] Expression in male copulatory apparatus is also observed. Dashed outlines indicate worm body and position of pharyngeal bulbs in the head. Scale bar = 10 μm. […]
Cell-based activation assays were performed as described ([Beets et al, 2012]). […] Cells (25,000 cells/well) were exposed to synthetic peptides in BSA medium, and aequorin bioluminescence was recorded for 30 s on a MicroBeta LumiJet luminometer (PerkinElmer) in quadruplicate. […] EC50 values were calculated from dose–response curves, constructed using a nonlinear regression analysis, with sigmoidal dose–response equation (Prism 9.0).

Substance | activation of the receptor NPR-22 in vitro (in words)
LURY-1-2: peptide encoded by the LURY-1 precursor (luqin RYamide) of C. elegans; synthetic peptide in the assay (AVLPRY; ends and bridges not checked; UniProt Q9XW71 38-43, looked up) | activate the receptor NPR-22 in vitro
LURY-1-1: peptide encoded by the LURY-1 precursor (luqin RYamide) of C. elegans; synthetic peptide in the assay (PALLSRY; ends and bridges not checked; UniProt Q9XW71 29-35, looked up) | activate the receptor NPR-22 in vitro
